The values that follow come from patent US20140044730A1 (Regeneron, published 2014).

In general, Kd refers to the constant that tells how readily two partners part at equilibrium. Read a high Kd as weaker binding. By t½ is commonly meant the time in which the quantity being followed falls by half. The low end stands for fast loss, the high end for slow loss.

Experiment [1] deals with T1, human PCSK9 with a C-terminal myc-myc-hexahistidine tag (human, UniProt Q8NBP7 31-692, limits assumed).
T1 construct: also called hPCSK9-mmH; hPCSK9-mmh; not shown: C-terminal myc-myc-hexahistidine tag
Put plainly: SPR 25C pH 7.2, mAb captured.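 Further: biacore SPR, antibodies captured on anti-human Fc CM4 chip with PCSK9 flowed as analyte, rate constants from a one-to-one kinetic fit, KD and half-life derived from them.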

Experiment [2] deals with T1, human PCSK9 with a C-terminal …. Put plainly: SPR 25C pH 5.75, mAb captured.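 Further: biacore surface with anti-human Fc antibody capturing the antibodies, PCSK9 as analyte, one-to-one kinetic fit, KD as kd over ka, half-life derived from kd.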
Experimental: A Biacore CM4 sensor chip was derivatized with a monoclonal mouse anti-human Fc antibody to capture human antibodies. The histidine substitution variant anti-PCSK9 antibodies were captured onto the anti-human Fc sensor surface from culture medium after transient expression in Chinese hamster ovary (CHO) cells. […] Kinetic association (kₐ) and dissociation (kd) rate constants were determined by processing and fitting the data to a 1:1 binding model using Scrubber 2.0 curve fitting software. Binding dissociation equilibrium constants (KD) and dissociative half-lives (t_{1/2}) were calculated from the kinetic rate constants as: KD (M)=kd/kₐ; and t_{1/2} (min)=(In2/(60*kd).
Experiment [3] shares this target. Put plainly: SPR 25C, mAb captured.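 Further: biacore CM4 surface bearing anti-human Fc antibody capturing the mAbs, PCSK9 binding and release rates fitted with a one-to-one model, KD and half-life derived from those rates.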

B1: VH-A97 (antibody, V domains shown)
VH: EMQLVESGGGLVQPGGSLRLSCAASGFTFSSHWMKWVRQAPGKGLEWVANINQDGSEKYYVDSVKGRFTISRDNAKNSLFLQMNSLRAEDTAVYYCHRDIVLMVYDMDYYYYGMDVWGQGTTVTVSS
VL: not shown
notes: His variant of 300N; label printed without the final H
For B1, the binding result in experiment [1] is on record as “no binding”.

B2: VH-D54H (antibody, V domains shown)
VH: EMQLVESGGGLVQPGGSLRLSCAASGFTFSSHWMKWVRQAPGKGLEWVANINQHGSEKYYVDSVKGRFTISRDNAKNSLFLQMNSLRAEDTAVYYCARDIVLMVYDMDYYYYGMDVWGQGTTVTVSS
VL: not shown
notes: His variant of 300N
In experiment [2], B2 had a Kd of 0.76 nM and a t½ of 13 min. In experiment [3], the “KD ratio pH 5.75/pH 7.2” value was determined as 0.79 and the “t½ ratio pH 5.75/pH 7.2” value was 0.33. In experiment [1], this molecule came in with a Kd of 0.964 nM and a t½ of 40 min.

B3: VH-R98H (antibody, V domains shown)
VH: EMQLVESGGGLVQPGGSLRLSCAASGFTFSSHWMKWVRQAPGKGLEWVANINQDGSEKYYVDSVKGRFTISRDNAKNSLFLQMNSLRAEDTAVYYCAHDIVLMVYDMDYYYYGMDVWGQGTTVTVSS
VL: not shown
notes: His variant of 300N
Take B3: in experiment [2], the Kd came out at 7.52 nM and the t½ was determined as 6 min. Moreover, in experiment [3], the “KD ratio pH 5.75/pH 7.2” value was 1.75 and the “t½ ratio pH 5.75/pH 7.2” value amounted to 0.28. In experiment [1], the Kd amounted to 4.29 nM and the t½ turned out to be 23 min.

B4: VH-F27H (antibody, V domains shown)
VH: EMQLVESGGGLVQPGGSLRLSCAASGHTFSSHWMKWVRQAPGKGLEWVANINQDGSEKYYVDSVKGRFTISRDNAKNSLFLQMNSLRAEDTAVYYCARDIVLMVYDMDYYYYGMDVWGQGTTVTVSS
VL: not shown
notes: His variant of 300N
In experiment [2], B4 gave a Kd of 1.05 nM and a t½ of 12 min. In experiment [3], the “KD ratio pH 5.75/pH 7.2” value came to 0.87 and the “t½ ratio pH 5.75/pH 7.2” value worked out at 0.29. In experiment [1], this molecule gave a Kd of 1.21 nM and a t½ of 42 min.

B5: VH-M103H (antibody, V domains shown)
VH: EMQLVESGGGLVQPGGSLRLSCAASGFTFSSHWMKWVRQAPGKGLEWVANINQDGSEKYYVDSVKGRFTISRDNAKNSLFLQMNSLRAEDTAVYYCARDIVLHVYDMDYYYYGMDVWGQGTTVTVSS
VL: not shown
notes: His variant of 300N
As for B5, in experiment [2], binding was put at a Kd of 5.56 nM and the t½ amounted to 6 min. Further, in experiment [3], the “KD ratio pH 5.75/pH 7.2” value was determined as 1.68 and the “t½ ratio pH 5.75/pH 7.2” value was 0.21. In experiment [1], this molecule showed a Kd of 3.3 nM and a t½ of 27 min.

B6: VH-G55H (antibody, V domains shown)
VH: EMQLVESGGGLVQPGGSLRLSCAASGFTFSSHWMKWVRQAPGKGLEWVANINQDHSEKYYVDSVKGRFTISRDNAKNSLFLQMNSLRAEDTAVYYCARDIVLMVYDMDYYYYGMDVWGQGTTVTVSS
VL: not shown
notes: His variant of 300N
As for B6, in experiment [2], binding was characterised by a dissociation constant (Kd) of 1.04 nM and the t½ was determined as 15 min. For the same molecule, in experiment [3], the “KD ratio pH 5.75/pH 7.2” value stood at 1.13 and the “t½ ratio pH 5.75/pH 7.2” value was 0.28. In addition, in experiment [1], the Kd turned out to be 0.921 nM and the t½ was 53 min.

B7: VK-T96H (antibody, V domains shown)
VH: EMQLVESGGGLVQPGGSLRLSCAASGFTFSSHWMKWVRQAPGKGLEWVANINQDGSEKYYVDSVKGRFTISRDNAKNSLFLQMNSLRAEDTAVYYCARDIVLMVYDMDYYYYGMDVWGQGTTVTVSS
VL: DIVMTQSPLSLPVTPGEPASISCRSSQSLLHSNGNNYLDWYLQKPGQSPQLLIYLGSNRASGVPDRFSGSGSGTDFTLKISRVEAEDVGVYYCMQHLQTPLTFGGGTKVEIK
notes: His variant of 300N
For B7, in experiment [1], the binding result is “no binding”.

B8: VH-G26H (antibody, V domains shown)
VH: EMQLVESGGGLVQPGGSLRLSCAASHFTFSSHWMKWVRQAPGKGLEWVANINQDGSEKYYVDSVKGRFTISRDNAKNSLFLQMNSLRAEDTAVYYCARDIVLMVYDMDYYYYGMDVWGQGTTVTVSS
VL: not shown
notes: His variant of 300N
In experiment [2], B8 yielded a Kd of 0.956 nM and a t½ of 12 min. Besides, in experiment [3], the “KD ratio pH 5.75/pH 7.2” value was 0.97 and the “t½ ratio pH 5.75/pH 7.2” value worked out at 0.26. In experiment [1], this molecule returned a Kd of 0.985 nM and a t½ of 47 min.

B9: VH-D115H (antibody, V domains shown)
VH: EMQLVESGGGLVQPGGSLRLSCAASGFTFSSHWMKWVRQAPGKGLEWVANINQDGSEKYYVDSVKGRFTISRDNAKNSLFLQMNSLRAEDTAVYYCARDIVLMVYDMDYYYYGMHVWGQGTTVTVSS
VL: not shown
notes: His variant of 300N
In experiment [2], B9 returned a Kd of 18.1 nM and a t½ of 13 min. In experiment [3], the “KD ratio pH 5.75/pH 7.2” value was found to be 4.62 and the “t½ ratio pH 5.75/pH 7.2” value was determined as 0.49. Besides, in experiment [1], the Kd turned out to be 3.91 nM and the t½ stood at 26 min.

B10: VH-G113H (antibody, V domains shown)
VH: EMQLVESGGGLVQPGGSLRLSCAASGFTFSSHWMKWVRQAPGKGLEWVANINQDGSEKYYVDSVKGRFTISRDNAKNSLFLQMNSLRAEDTAVYYCARDIVLMVYDMDYYYYHMDVWGQGTTVTVSS
VL: not shown
notes: His variant of 300N
Regarding B10, in experiment [1], the binding result is “no binding”.

B11: VK-S32H (antibody, V domains shown)
VH: EMQLVESGGGLVQPGGSLRLSCAASGFTFSSHWMKWVRQAPGKGLEWVANINQDGSEKYYVDSVKGRFTISRDNAKNSLFLQMNSLRAEDTAVYYCARDIVLMVYDMDYYYYGMDVWGQGTTVTVSS
VL: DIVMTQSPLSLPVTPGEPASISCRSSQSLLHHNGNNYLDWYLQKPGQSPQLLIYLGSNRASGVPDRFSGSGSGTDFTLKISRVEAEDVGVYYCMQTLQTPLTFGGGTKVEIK
notes: His variant of 300N
In the case of B11, the binding result in experiment [1] is “no binding”.

B12: VH-F29H (antibody, V domains shown)
VH: EMQLVESGGGLVQPGGSLRLSCAASGFTHSSHWMKWVRQAPGKGLEWVANINQDGSEKYYVDSVKGRFTISRDNAKNSLFLQMNSLRAEDTAVYYCARDIVLMVYDMDYYYYGMDVWGQGTTVTVSS
VL: not shown
notes: His variant of 300N
With B12, in experiment [2], binding was characterised by a dissociation constant (Kd) of 1.91 nM and the t½ is 10 min. Also, in experiment [3], the “KD ratio pH 5.75/pH 7.2” value is 1.8 and the “t½ ratio pH 5.75/pH 7.2” value amounted to 0.22. For the same molecule, in experiment [1], binding was put at a Kd of 1.06 nM and the t½ was 46 min.

B13: VH-E57H (antibody, V domains shown)
VH: EMQLVESGGGLVQPGGSLRLSCAASGFTFSSHWMKWVRQAPGKGLEWVANINQDGSHKYYVDSVKGRFTISRDNAKNSLFLQMNSLRAEDTAVYYCARDIVLMVYDMDYYYYGMDVWGQGTTVTVSS
VL: not shown
notes: His variant of 300N
With B13, in experiment [2], the Kd was 1.23 nM and the t½ stood at 8 min. Moreover, in experiment [3], the “KD ratio pH 5.75/pH 7.2” value amounted to 1.03 and the “t½ ratio pH 5.75/pH 7.2” value turned out to be 0.26. Further, in experiment [1], binding was put at a Kd of 1.2 nM and the t½ came to 30 min.

B14: VH-Q53H (antibody, V domains shown)
VH: EMQLVESGGGLVQPGGSLRLSCAASGFTFSSHWMKWVRQAPGKGLEWVANINHDGSEKYYVDSVKGRFTISRDNAKNSLFLQMNSLRAEDTAVYYCARDIVLMVYDMDYYYYGMDVWGQGTTVTVSS
VL: not shown
notes: His variant of 300N
For the molecule B14, in experiment [2], binding was put at a Kd of 1.57 nM and the t½ came out at 6 min. In experiment [3], the “KD ratio pH 5.75/pH 7.2” value is 1.29 and the “t½ ratio pH 5.75/pH 7.2” value came to 0.19. In experiment [1], the Kd came out at 1.22 nM and the t½ was determined as 32 min.

B15: VH-I51H (antibody, V domains shown)
VH: EMQLVESGGGLVQPGGSLRLSCAASGFTFSSHWMKWVRQAPGKGLEWVANHNQDGSEKYYVDSVKGRFTISRDNAKNSLFLQMNSLRAEDTAVYYCARDIVLMVYDMDYYYYGMDVWGQGTTVTVSS
VL: not shown
notes: His variant of 300N
Take B15: in experiment [2], the Kd was found to be 1.03 nM and the t½ was determined as 17 min. Moreover, in experiment [3], the “KD ratio pH 5.75/pH 7.2” value turned out to be 1.24 and the “t½ ratio pH 5.75/pH 7.2” value is 0.34. In experiment [1], the Kd worked out at 0.828 nM and the t½ was 50 min.

B16: VH-I100H (antibody, V domains shown)
VH: EMQLVESGGGLVQPGGSLRLSCAASGFTFSSHWMKWVRQAPGKGLEWVANINQDGSEKYYVDSVKGRFTISRDNAKNSLFLQMNSLRAEDTAVYYCARDHVLMVYDMDYYYYGMDVWGQGTTVTVSS
VL: not shown
notes: His variant of 300N
In experiment [2], B16 registered a Kd of 24.1 nM and a t½ of 3 min. In experiment [3], the “KD ratio pH 5.75/pH 7.2” value came to 3.56 and the “t½ ratio pH 5.75/pH 7.2” value came to 0.15. In experiment [1], this molecule displayed a Kd of 6.77 nM and a t½ of 18 min.

B17: VH-N52H (antibody, V domains shown)
VH: EMQLVESGGGLVQPGGSLRLSCAASGFTFSSHWMKWVRQAPGKGLEWVANIHQDGSEKYYVDSVKGRFTISRDNAKNSLFLQMNSLRAEDTAVYYCARDIVLMVYDMDYYYYGMDVWGQGTTVTVSS
VL: not shown
notes: His variant of 300N
With B17, in experiment [2], the Kd stood at 4.33 nM and the t½ stood at 3 min. For the same molecule, in experiment [3], the “KD ratio pH 5.75/pH 7.2” value is 1.84 and the “t½ ratio pH 5.75/pH 7.2” value was 0.16. For the same molecule, in experiment [1], the affinity, expressed as Kd, was 2.35 nM and the t½ was determined as 21 min.

B18: VH-K58H (antibody, V domains shown)
VH: EMQLVESGGGLVQPGGSLRLSCAASGFTFSSHWMKWVRQAPGKGLEWVANINQDGSEHYYVDSVKGRFTISRDNAKNSLFLQMNSLRAEDTAVYYCARDIVLMVYDMDYYYYGMDVWGQGTTVTVSS
VL: not shown
notes: His variant of 300N
In experiment [2], B18 returned a Kd of 1.28 nM and a t½ of 8 min. In experiment [3], the “KD ratio pH 5.75/pH 7.2” value stood at 0.92 and the “t½ ratio pH 5.75/pH 7.2” value was determined as 0.26. Moreover, in experiment [1], the Kd is 1.39 nM and the t½ came out at 32 min.

B19: VH-L102H (antibody, V domains shown)
VH: EMQLVESGGGLVQPGGSLRLSCAASGFTFSSHWMKWVRQAPGKGLEWVANINQDGSEKYYVDSVKGRFTISRDNAKNSLFLQMNSLRAEDTAVYYCARDIVHMVYDMDYYYYGMDVWGQGTTVTVSS
VL: not shown
notes: His variant of 300N
In experiment [2], B19 returned a Kd of 17.9 nM and a t½ of 7 min. Moreover, in experiment [3], the “KD ratio pH 5.75/pH 7.2” value is 3.66 and the “t½ ratio pH 5.75/pH 7.2” value turned out to be 0.31. Also, in experiment [1], the affinity, expressed as Kd, was 4.89 nM and the t½ stood at 23 min.

B20: VH-D99H (antibody, V domains shown)
VH: EMQLVESGGGLVQPGGSLRLSCAASGFTFSSHWMKWVRQAPGKGLEWVANINQDGSEKYYVDSVKGRFTISRDNAKNSLFLQMNSLRAEDTAVYYCARHIVLMVYDMDYYYYGMDVWGQGTTVTVSS
VL: not shown
notes: His variant of 300N
In experiment [2], B20 came in with an equilibrium dissociation constant (Kd) of 6.32 nM and a t½ of 7 min. Also, in experiment [3], the “KD ratio pH 5.75/pH 7.2” value was determined as 0.14 and the “t½ ratio pH 5.75/pH 7.2” value was determined as 0.73. Also, in experiment [1], the Kd came to 46.2 nM and the t½ worked out at 9 min.
